Experimental data taken from patent US20170281807A1 (UNIVERSITY OF TENNESSEE RESEARCH FOUNDATION, published 2017).
Ends that are not written are not given here.

B1: peptide p66 (11-1F4 peptope) (peptide)
peptide: KAQKAQAKQAKQAQKAQKAQAKQAKQAQKAQKAQAKQAKQSVTVVTKHYAAFPENLLI
modifications: also: 125I-labeled in pull-down and in vivo work
notes: also called peptope p66

How the values were obtained:
[1] = target: B1; assay: EuLISA, peptide coated, 11-1F4 titrated from 100 nM
[2] = target: BSA (UniProt P02769 25-607); assay: EuLISA, BSA-blocked wells without fibrils, p66 then 11-1F4
Chain of BSA (P02769 25-607 limits assumed): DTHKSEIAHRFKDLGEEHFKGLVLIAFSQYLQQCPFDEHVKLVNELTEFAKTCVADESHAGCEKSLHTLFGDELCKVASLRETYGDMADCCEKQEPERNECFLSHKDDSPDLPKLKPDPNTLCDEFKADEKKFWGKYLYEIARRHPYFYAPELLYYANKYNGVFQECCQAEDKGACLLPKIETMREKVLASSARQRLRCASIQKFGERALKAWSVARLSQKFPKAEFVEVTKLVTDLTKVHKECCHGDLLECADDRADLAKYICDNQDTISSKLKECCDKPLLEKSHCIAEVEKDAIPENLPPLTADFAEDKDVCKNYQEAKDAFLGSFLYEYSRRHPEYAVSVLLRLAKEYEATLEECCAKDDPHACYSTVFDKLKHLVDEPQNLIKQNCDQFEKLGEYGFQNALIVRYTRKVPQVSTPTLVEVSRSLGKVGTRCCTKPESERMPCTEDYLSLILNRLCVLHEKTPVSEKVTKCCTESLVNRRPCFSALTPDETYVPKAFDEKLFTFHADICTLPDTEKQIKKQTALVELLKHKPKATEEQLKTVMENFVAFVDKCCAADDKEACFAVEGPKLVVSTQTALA

[3] = target: T1, synthetic Aβ(1-40) amyloid fibrils (UniProt P05067 672-711); assay: EuLISA, fibrils coated, p66 added and washed, detected by 11-1F4
T1 construct: domain: Aβ(1-40); Fibrillar aggregate; 1-40 counts on the Aβ peptide, not on the precursor
T1 sequence (P05067 672-711 limits assumed): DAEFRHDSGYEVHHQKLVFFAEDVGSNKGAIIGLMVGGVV

Row | Binder | EC50 [1] [nM] | binding result [2] | binding result [3]
1 | murine 11-1F4 monoclonal antibody (antibody, V domains shown) VH: QVQLKESGPGLVAPSQSLSITCTVSGFSLSSYGVSWVRQPPGKGLEWLGVIWGDGSTNYHPNLMSRLSISKDISKSQVLFKLNSLQTDDTATYYCVTLDYWGQGTSVTVSS VL: DVVMTQTPLSLPVSLGDQASISCRSSQSLVHRNGNTYLHWYLQKPGQSPKLLIYKVSNRFSGVPDRFSGSGSGTDFTLKISRVEAEDLGLYFCFQTTYVPNTFGGGTKLEIK | ~0.5 |  | 
2 | B1 |  | no binding (tested: 100 µl of a 0.83 mM stock solution) | binds
